Laboratory results: paper PMC3315506, “A Single Gene Target of an ETS-Family Transcription Factor Determines Neuronal CO2-Chemosensitivity”

T1: GST::ETS-5 (Caenorhabditis elegans, UniProt Q18579 1-208)
T1 sequence: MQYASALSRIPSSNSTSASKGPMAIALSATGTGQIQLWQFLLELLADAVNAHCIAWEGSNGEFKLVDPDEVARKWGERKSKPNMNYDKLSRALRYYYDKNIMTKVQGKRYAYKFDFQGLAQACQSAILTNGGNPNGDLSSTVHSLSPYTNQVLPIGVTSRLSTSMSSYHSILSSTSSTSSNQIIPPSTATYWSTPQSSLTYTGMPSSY


Key:
GST::ETS-5 [1] = target: T1, GST::ETS-5; assay: EMSA; also blocked by excess unlabeled probe (10-500x); EMSA: 1 ug GST::ETS-5 or 2 ug GST, 0.1 pmol 3'-biotin duplex, room temperature 20 min, 6% polyacrylamide gel in 0.5x TBE; binding buffer, salt and pH not stated; conditions: protein: recombinant; tags: N-terminal GST (pGEX); label: 3'-biotin (labeled probe); blunt
GST::ETS-5 [2] = target: T1, GST::ETS-5; assay: competition; scrambled competitor 10-500x molar excess over labeled N1; did not block; EMSA: 1 ug GST::ETS-5 or 2 ug GST, 0.1 pmol 3'-biotin duplex, room temperature 20 min, 6% polyacrylamide gel in 0.5x TBE; binding buffer, salt and pH not stated; conditions: protein: recombinant; tags: N-terminal GST (pGEX); label: unlabeled; blunt

Binder	binding result (GST::ETS-5 [1])	binding result (GST::ETS-5 [2])
gcy-9 promoter ETS-site probe (45 bp) (dsDNA) DNA 1: ATCCACTTCCGATGGGCCCTTCCGGCATGATAAGAAGTGAGTGGC DNA 2: GCCACTCACTTCTTATCATGCCGGAAGGGCCCATCGGAAGTGGAT	binds	
scrambled competitor (dsDNA) DNA 1: CTGACCCCGTGTCGCTAATAGACTCAGTTACGCAAGATGG DNA 2: CCATCTTGCGTAACTGAGTCTATTAGCGACACGGGGTCAG		no binding
